Measurements from patent publication US20170008975A1, “Anti-Tissue Inhibitor of Metalloproteinase-4 (Timp-4) Antibodies and Methods of Use Thereof” (LANKENAU INSTITUTE FOR MEDICAL RESEARCH, priority 2014, published 2017).
Entries after “also recorded” stand apart in the source; their conditions may differ.

Legend:
[1] = test system: AKT; test: Western blotting of AKT activation in breast cancer cell cultures; assay type: cell-based
From the text: TIMP-4 appears to induce PI3K/AKT signaling, a critically important cancer cell pathway (Cantley, L. C. (2002) Science, 296:1655-7; Lopez-Knowles et al. (2010) Int. J. Cancer, 126:1121-31), through binding to the tetraspanin CD63 (Jung et al. (2006) EMBO J., 25:3934-42) (FIG. 3). […] Prior to clinical use of Her-2 targeting therapy (Herceptin®), breast cancers that were positive for Her-2 were, like TNBCs, associated with fast growth rate, early recurrence and distant disease resulting in a prognosis of poor survival (Hsieh et al. (2007) Br. J. Cancer, 97:453-7).

[2] = test system: CD63 negative SK-Br-3 cells; test: Modified Boyden chamber invasion, SK-Br-3; assay type: cell-based, human; conditions: 2nM TIMP-4 for 24 hours, N=6
Method: (§1) MDA-MB-468 cell were compared to the CD63 negative SK-Br-3 cells using a modified Boyden chamber to assess invasion in absence (Ctrl) and presence of 2nM TIMP-4 (N=6). […] Clonogenic growth assay (Ayene et al. (2000) Int. J. Radiat. Biol., 76:1523-1531) was used to determine the survival advantage for MDA-MB-468 cells under elevtedTIMP-4 conditions after irradiation (N=3). […] This effect can be prevented by pre-treating the cells with LY294002. […] Further, cells cultured in normal medium began to detach and die as they reached contact inhibition (day 10), whereas cells in TIMP-4-supplemented media continued to survive and grow. Growth augmented by TIMP-4 could be blocked by the addition of the TIMP-4 mAb of the instant invention. Briefly, TIMP-4 mAbs were obtained by delivering a purified glutathione-S-transferase (GST) chimeric protein comprising the human full-length 224 amino acid TIMP-4 (GenBank Accession No. NM_003256.2).

[3] = target: T1, CD63 (Homo sapiens, UniProt P08962); test: Immunoprecipitation and immunofluorescence staining for CD63 binding; conditions: MDA-MB-468, 2nM TIMP-4
T1 construct: endogenous in cells; host or cells: MDA-MB-468
T1 sequence (P08962 1-238): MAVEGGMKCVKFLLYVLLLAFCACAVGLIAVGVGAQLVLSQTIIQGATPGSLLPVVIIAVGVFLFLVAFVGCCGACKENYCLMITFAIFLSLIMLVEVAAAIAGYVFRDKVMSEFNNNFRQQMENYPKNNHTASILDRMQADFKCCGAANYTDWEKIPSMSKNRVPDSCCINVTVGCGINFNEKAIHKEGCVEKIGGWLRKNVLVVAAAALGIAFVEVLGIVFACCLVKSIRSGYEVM
From the text: Human breast cancer cell-lines expressing the tetraspanin CD63 (Chirco et al. (2006) Cancer Met. Rev., 25:99-113), as determined by FACS analysis, include MDA-MB-468.

[4] = test system: MDA-MB-468 cells; test: MDA-MB-468 orthotopic xenograft in mammary fat pad of nude mice with TIMP-4 or placebo slow-release pellets; assay type: in vivo; conditions: TIMP-4 slow-release pellets implanted two weeks before cells
Method: FIGS. 7A and B show the effect of modulating TIMP-4 levels in a pilot animal study. Slow-release pellets were used to elevate the TIMP-4 (FIG. 7A) levels in the mammary fatpad (mfp) prior to implanting human TNBC cells. Placebo pellets (FIG. 7B) were used for control conditions. Once tumors were established, twice weekly doses of the anti-TIMP-4 or iso-type control mAb were administered during a two-week period (i.e. in total four treatments). Animals were followed for an additional two weeks post-treatment.
Inguinal mammary fat pads in nude mice were implanted with slow-release pellets (Innovative Research of America, Fla.) containing TIMP-4 to elevate its levels. Two weeks later, MDA-MB-468 cells were mixed with Matrigel™ (LDEV and phenol red free, BD Biosciences) and injected at the same site as an orthotopic xenograft. […] Tumor-bearing mice from both the groups shown were then randomly divided in half and treated by i.p. injection with 1 mg IgG of TIMP-4 mAb (clone 18:4-7) or a matched isotype control IgG2bk (BioXCell, N.H.), in sterile azide-free solution, administered twice weekly for 2 weeks. […] The antibody had no effect on animals without elevated TIMP-4 (FIG. 7B).

[5] = test system: MDA-MB-468 cell; test: Modified Boyden chamber invasion, MDA-MB-468; assay type: cell-based, human; conditions: 2nM TIMP-4 for 24 hours, N=6
Method: as §1

[6] = test system: MDA-MB-468 cells; test: Clonogenic growth assay after irradiation; assay type: cell-based, human; conditions: elevated TIMP-4 conditions, N=3
Method: as §1

[7] = test system: triple-negative human breast cancer cell-line MDA-MB-468; test: Growth of MDA-MB-468 in culture with or without 2 nM TIMP-4; assay type: cell-based; conditions: normal media supplemented with 2 nM TIMP-4
Method: as §1

With “TIMP-1: member of the mammalian TIMP family, secreted circulating protein” the “activation of AKT (pAkt Ser473)” value [1] was “can activate AKT”.

B1: TIMP-4: tissue inhibitor of metalloproteinase-4 protein (R&D Systems, Inc), added to media or given in slow-release pellets (protein, UniProt Q99727 30-224, looked up)
Metalloproteinase inhibitor 4: CSCAPAHPQQHICHSALVIRAKISSEKVVPASADPADTEKMLRYEIKQIKMFKGFEKVKDVQYIYTPFDSSLCGVKLEANSQKQYLLTGQVLSDGKVFIHLCNYIEPWEDLSLVQRESLNHHYHLNCGCQITTCYTVPCTISAPNECLWTDWLLERKLYGYQAQHYVCMKHVDGTCSWYRGHLPLRKEFVDIVQP
In the case of B1, the “activation of AKT (pAkt Ser473)” value [1] is reported as “can activate AKT; also recorded: sufficient to activate the PI3K/AKT pathway”, the “invasiveness of SK-Br-3” value [2] is reported as “did not increase the invasiveness” and the “binding to CD63” value [3] is reported as “functional binding partner”. The “tumor size and growth rate with TIMP-4 pellets versus placebo pellets” value [4] was “Differences in tumor size and growth rate”, the “invasiveness of MDA-MB-468” value [5] was “increased the invasiveness” and the “survival of MDA-MB-468 cells after irradiation” value [6] was “increased survival”. For the same molecule, the “growth rate of MDA-MB-468” value [7] was “increased growth rate; also recorded: relatively faster growth rate”.
